Sequences and labels used below:
T1: human IL-11Rα, FLAG-tagged, expressed at the surface of transiently transfected cells (human, UniProt Q14626 23-422)
T1 construct: whole, on cells; also called IL-11Rα expressing HEK cells; FLAG-tagged human IL-11Rα; not shown: tag
T1 sequence (looked up): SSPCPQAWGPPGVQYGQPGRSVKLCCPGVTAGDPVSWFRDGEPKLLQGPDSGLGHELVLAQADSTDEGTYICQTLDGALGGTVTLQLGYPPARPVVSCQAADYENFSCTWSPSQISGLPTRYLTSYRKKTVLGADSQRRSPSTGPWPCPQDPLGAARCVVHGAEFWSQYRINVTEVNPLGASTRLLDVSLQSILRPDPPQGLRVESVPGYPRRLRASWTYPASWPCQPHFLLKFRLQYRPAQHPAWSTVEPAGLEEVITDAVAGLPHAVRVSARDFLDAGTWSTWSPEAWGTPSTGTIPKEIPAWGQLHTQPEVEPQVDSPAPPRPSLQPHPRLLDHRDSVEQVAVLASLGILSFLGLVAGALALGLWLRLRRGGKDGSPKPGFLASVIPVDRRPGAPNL

B1: BSO-2E5 (antibody, V domains shown)
VH: QGQVQQSGAELVKPGASVKLSCKTSGFTFSTSYISWLKQKPRQSLEWIAWIYAGTGSTSYNQKFTGKAQLTVDTSSSTAYMQLSSLTSEDSAIYYCARHWAYWGQGTLVTVSA
VL: DIQMTQSPSSLSASLGERVSLTCRASQDIGSSLNWLQQEPDGTIKRLIYATASLESGVPKRFSGSRSGSDYSLTISRLESEDFVDYYCQQYASSPPTFGAGTKLELK
notes: Mouse monoclonal from hybridoma; also called RA3
B2: BSO-5E5 (antibody, V domains shown)
VH: DVQLQESGPGLVKPSQSLSLTCSVTGYSITSDYYWNWIRQFPGNKLEWMGYISYDSSNNYNPSLKNRISITRDTSKNQFFLKLNSVTTEDTATYYCASVGYYYVSDWYFDVWGTGTTVTVSS
VL: DIVMSQSPSSLPVSVGENVTMSCKSSQSLLYGSNQKNYLAWYQQKPGQSPKLLIYWASTRESGVPDRFTGSGSGTDFTLTISSVKAEDLAVYFCQQYYSYPRTFGGGTKLEIK
notes: Mouse monoclonal from hybridoma; also called RA5
B3: BSO-13B10 (antibody, V domains shown)
VH: QVQLKESGPGLVAPSQSLSITCTVSGFSLTSFSISWVRQPPGKGLEWLGGIWTGGGTNYNSALKPRLSISKDNSKSQVFLKMNSLQTDDTARYYCARNSNYPSGFAYWGQGTLVTVSA
VL: DIVMTQSQKFMSTSVGDRVSVTCKASQNVGSNVAWYQQKAGQSPKALIYSASYRYSGVPDRFTGSGSGTDFTLTISNVQSEDLAEYFCQQYNSYPLTFGAGTKLELK
notes: Mouse monoclonal from hybridoma; also called RA9
B4: BSO-10D11 (antibody, V domains shown)
VH: QVQLQQSGTELVRPGTSVKMSCKAAGYTFTDYWIGWIKQRPGHGLEWIGDIFPGGDYTKCSERFKGKAKLTADTSSSTAYMQLSRLTSEDSAIYYCARRSTTIRFGAMDNWGQGTSVTVSS
VL: DIQMTQSPSSLSASLGERVSLTCRASQEISAYLSWLQQKPDGTIKRLIYSTSTLDSGVPKRFSGSRSGSDYSLTISSLESEDFADYFCLQYASSPLTFGAGTKLELK
notes: Mouse monoclonal from hybridoma
B5: BSO-4G3 (antibody, V domains shown)
VH: EVQLVESGGGLVKPGGSLKLSCAASGFTFSTYAMSWVRQTPEKRLEWVAAIKSNGGSTYYPDTVKDRFTISRDNAKNTLYLQMSSLRPEDTALYYCAHGLLFAHWGQGTLVTVSA
VL: DIVLTQSPASLAVSLGQSVTISCRASESVEYSGTTLMQWYQQKPGQPPKLLIYGASNVESGVPARFSGSGSGTDFSLNIHPVEEDDIAMYFCQQSRKVPYTFGSGTKLEIK
notes: as for B4
B6: BSO-7G9 (antibody, V domains shown)
VH: QVQLQQPGAELVKPGASVRLSCKASGYTFTSYWMHWVKQRPGQGLEWIGMIHPNSGYTNYNEKFKIKATLTVDKSSSTAHMQLSSLTSEDSAVYHCARGGYDGSYGPWFAYWGQGTLVTVSA
VL: DVVMTQTPLSLPVSLGDQASISCRSSQSLVHSNGNTYLHWYLQKPGQSPKLLIYKVSNRFSGVPDRFSGSGSGTDFTLKISRVEAEDLGVYFCSQSTHVPLTFGAGTKLELK
notes: as for B4
B7: BSO-9A7 (antibody, V domains shown)
VH: QVQLQQPGAELVRPGSSVKLSCKASGYTFTNYWMHWLKQRPVQGLEWIGNIGPSDSKTHYNQKFKDKATLTVDKSSSTAYMQLNSLTSEDSAVYYCARGDYVLFTYWGQGTLVTVSA
VL: DIVLTQSPATLSMTPGDSVSLSCRASQSISNNLHWYQQKSHESPRLLIKYASQSISGIPSRFSGSGSGTDFTLSFNSVETEDFGVYFCQQRYSWPLTFGAGTKLEMK
notes: Mouse monoclonal from hybridoma; also called RA7

The target of the first assay is T1, human IL-11Rα, FLAG-tagged, expressed …. Description: flow cytometry of subcloned hybridoma supernatant on cells transfected with FLAG-tagged human IL-11Rα (sheet header: 'pB1-IL11-hum.FL', 'flow cytometry (Attunes)'; text: iQue mix-and-measure, anti-mouse IgG secondary). As to the method: The mouse hybridomas producing anti-human IL-11Rα antibodies were sub-cloned, and cell culture supernatant from the subcloned hybridomas was analysed by “mix-and-measure” iQue assay for (i) ability to bind to human IL-11Rα, and (ii) cross reactivity for antigen other than IL-11Rα.
(§1) Briefly, labelled control cells (not expressing IL-11Rα at the cell surface) and unlabelled target cells expressing human IL-11Rα at their surface (following transient transfection with a plasmid encoding a FLAG-tagged human IL-11Rα) were mixed together with the cell culture supernatant (containing mouse-anti-IL-11Rα antibodies) and secondary detection antibodies (fluorescently-labelled anti-mouse IgG antibody).
(§2) The cells were then analysed using the HTFC Screening System (iQue) for the two labels (i.e. the cell label and the label on the secondary antibody). Detection of the secondary antibody on the unlabelled, IL-11Rα expressing cells indicated ability of the mouse-anti-IL-11Rα antibodies to bind to IL-11Rα. Detection of the secondary antibody on the labelled, control cells indicated cross-reactivity of the mouse-anti-IL-11Rα antibodies for target other than IL-11Rα.
As for B1, the GMFI was 9540.

B2 returned a GMFI of 8780.

With B3, the GMFI is 10900.

The molecule B4 showed a GMFI of 13100.

The molecule B5 showed a GMFI of 9300.

As for B6, the GMFI is 18600.

As for B7, the GMFI turned out to be 34800.

Another assay shares this target. Description: same assay; percent relative to the positive control anti-FLAG antibody (100%). As to the method: as §1, §2
As a positive control condition, labelled and unlabelled cells were incubated with a mouse anti-FLAG tag antibody as the primary antibody.
As to B1, the “% positive” value was determined as 30%.

Turning to B2, the “% positive” value is 28%.

Consider B3, for which the “% positive” value amounted to 35%.

For B4, the “% positive” value is 42%.

Regarding B5, the “% positive” value is 30%.

With B6, the “% positive” value is 59%.

Consider B7, for which the “% positive” value amounted to 111%.
